The results in this text go back to PMC5682932 (The Biochemical journal, 2017).

Test [1] has as its target T1, peptidyl-prolyl isomerase H (PPIH), full length, wild type (human, UniProt O43447 1-177). As to the kind of experiment: SPR. On the technique in general: SPR reads the build-up and loss of mass on a sensor chip optically.
The target of the next test is T2, PPIH W133A mutant (human, UniProt O43447 1-177, W133A).
T2 sequence: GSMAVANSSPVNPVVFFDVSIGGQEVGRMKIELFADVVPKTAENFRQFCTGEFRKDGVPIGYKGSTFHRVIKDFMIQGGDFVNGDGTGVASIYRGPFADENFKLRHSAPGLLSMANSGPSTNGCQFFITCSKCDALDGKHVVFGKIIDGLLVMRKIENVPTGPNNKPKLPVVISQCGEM
Nature of the test: SPR.

The target in test [2] is T1, peptidyl-prolyl isomerase H (PPIH), …. As to the kind of experiment: AUC.

B1: pre-mRNA processing factor 4 (PRPF4), residues 1-98 (domain or fragment, human, UniProt O43172 1-98, looked up)
chain: MASSRASSTQATKTKAPDDLVAPVVKKPHIYYGSLEEKERERLAKGESGILGKDGLKAGIEAGNINITSGEVFEIEEHISERQAEVLAEFERRKRARQ
As for B1, in test [1], binding was put at a Kd of 10.8 ± 1.37 µM. The binding result with PPIH W133A mutant is “binds”.

B2: pre-mRNA processing factor 4 (PRPF4), residues 1-169 (domain or fragment, human, UniProt O43172 1-169, looked up)
chain: MASSRASSTQATKTKAPDDLVAPVVKKPHIYYGSLEEKERERLAKGESGILGKDGLKAGIEAGNINITSGEVFEIEEHISERQAEVLAEFERRKRARQINVSTDDSEVKACLRALGEPITLFGEGPAERRERLRNILSVVGTDALKKTKKDDEKSKKSKEEYQQTWYHE
In turn, B2 came in with a Kd in test [1] of 0.39 ± 0.04 µM. In addition, the binding result with PPIH W133A mutant is on record as “binds”.

B3: PRPF4 residues 1-169 with F122A (domain or fragment, human, UniProt O43172 1-169, looked up)
chain: MASSRASSTQATKTKAPDDLVAPVVKKPHIYYGSLEEKERERLAKGESGILGKDGLKAGIEAGNINITSGEVFEIEEHISERQAEVLAEFERRKRARQINVSTDDSEVKACLRALGEPITLAGEGPAERRERLRNILSVVGTDALKKTKKDDEKSKKSKEEYQQTWYHE
Take B3: binding in test [1] was characterised by a dissociation constant (Kd) of 15.6 µM.

B4: pre-mRNA processing factor 4 (PRPF4), residues 106-169 (domain or fragment, human, UniProt O43172 106-169, looked up)
chain: SEVKACLRALGEPITLFGEGPAERRERLRNILSVVGTDALKKTKKDDEKSKKSKEEYQQTWYHE
Regarding B4, the “stoichiometry N” value in test [2] turned out to be 2. In addition, in the test with PPIH W133A mutant, the binding result was “binds”.

B5: PRPF4 residues 106-169 with F122A (domain or fragment, human, UniProt O43172 106-169, looked up)
chain: SEVKACLRALGEPITLAGEGPAERRERLRNILSVVGTDALKKTKKDDEKSKKSKEEYQQTWYHE
On to B5, for which the Kd with PPIH W133A mutant was found to be 1 µM. In other words, the single-digit micromolar range.

The Kd is the equilibrium constant for the complex coming apart. A high value points to a looser complex. The term stoichiometry N denotes the number of molecules, sites or subunits per partner or assembly.
